{"source": "paper PMC10296741", "about": "“One Single Tube Reaction of Aptasensor-Based Magnetic Sensing System for Selective Fluorescent Detection of VEGF in Plasma”", "target": "VEGF-165 (UniProt P15692-4 27-191)", "sequence (P15692 other isoform, or with tags, fused parts or gaps)": "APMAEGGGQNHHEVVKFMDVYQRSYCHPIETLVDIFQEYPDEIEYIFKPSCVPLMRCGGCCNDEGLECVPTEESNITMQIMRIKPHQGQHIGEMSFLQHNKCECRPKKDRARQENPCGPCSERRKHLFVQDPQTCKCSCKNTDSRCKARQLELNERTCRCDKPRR", "assay": "magnetic bead capture with fluorescent complementary probe (fluorescence rebound); 50 uM KCl, 1 mM Mg2+, pH 7.0; linear 0.2-2.0 ng/mL VEGF in plasma, LOD 0.0445 ng/mL; 1X TBSE: 10 mM Tris, 0.05 mM EDTA, 100 mM NaCl, 1 mM MgCl2, 50 uM KCl, pH 7.0; 0.1 uM aptamer (95 C 3 min, cooled), 25 C, 45 min", "settings": "protein: commercial; chain copies: 2; label: 5'-biotin; G-quadruplex"}
{"binder": "TGTGGGGGTGGACGGGCCGGGTAGA (structured_DNA)", "note": "[VEGF aptamer (APT)]", "values": [{"measurement": "binding result", "result": "binds"}]}
